Here are results for 41 variants from the RNAGym collection of RNA variant scans (doi:10.7554/elife.90254).

Sequences and labels used below:
B1: OR4K15 (parent)
chain: GUUAACGGUCAUAGGCCAUGGAAACUAGGAGCACCAUUUCGCUGCCAGUGAAGAAAUGAACAAAGAAAAUCUGGGCCAGGCAGGCAUCAAAAGAAAUAGUCUUGCGCUCAACCAGAAAGUCUGUAAUCAUUUUAAGGGUA

Variants of B1 are the subject of this data set. Description: self-cleavage, relative activity (ratio to wild type); higher = more cleavage; in vitro, sequencing; the parent is a self-cleaving ribozyme.
For GCUAACGGUCAUAGGCCAUGGAAACUAGGAGCACCAUUUCGCUGCCAGUGAAGAAAUGAACAAAGAAAAUCUGGGCCAGGCGGGCAUCAAAAGAAAUAGUCUUGCGCUCAACCAGAAAGUCUGUAAUCAUUUUAAGGGUA [U2C A82G], the self-cleavage is 0.55.

For GCUAACGGUCAUAGGCCAUGGAAACUAGGAGCACCAUUUCGCUGCCAGUGAAGAAAUGAACAAAGAAAAUCUGGGCCAGGCUGGCAUCAAAAGAAAUAGUCUUGCGCUCAACCAGAAAGUCUGUAAUCAUUUUAAGGGUA [U2C A82U], the self-cleavage came out at 0.17.

For GCUAACGGUCAUAAGCCAUGGAAACUAGGAGCACCAUUUCGCUGCCAGUGAAGAAAUGAACAAAGAAAAUCUGGGCCAGGCAGGCAUCAAAAGAAAUAGUCUUGCGCUCAACCAGAAAGUCUGUAAUCAUUUUAAGGGUA [U2C G14A], the self-cleavage was determined as 1.39.

Turning to GCUAACGGUCAUAGGCCAUGGAAACUAGGAGCACCAUUUCGCUGCCAGUGAAGAAAUGAACAAAGAAAAUCUGGGCCAGGCAGGCAUCAAAAGAAAUAGUCUUGCGCUCAUCCAGAAAGUCUGUAAUCAUUUUAAGGGUA [U2C A111U], the self-cleavage turned out to be 0.27.

As to GCUAACGGUCAUAGGCCAUGGAAACUAGGAGCACCAUUUCGCUGCCAGUGAAGAAAUGAACAAAGAAAAUCUGGGCCAGGCAGGCAUCAAAAGAAAUAGUCUUGCGCUCAACCCGAAAGUCUGUAAUCAUUUUAAGGGUA [U2C A114C], the self-cleavage was 0.03.

Take GCUAACGGUCAUAGGCCAUGGAAACUAGGAGCACCAUUUCGCUGCCAGUGAAGAAAUGAACAAAGAAAAUCUGGGCCAGGCAGGCAUCAAAAGAAAUAGUCUUGCGCUCAAUCAGAAAGUCUGUAAUCAUUUUAAGGGUA [U2C C112U]: the self-cleavage was 0.

Consider GCUAACGGUUAUAGGCCAUGGAAACUAGGAGCACCAUUUCGCUGCCAGUGAAGAAAUGAACAAAGAAAAUCUGGGCCAGGCAGGCAUCAAAAGAAAUAGUCUUGCGCUCAACCAGAAAGUCUGUAAUCAUUUUAAGGGUA [U2C C10U], for which the self-cleavage was 1.04.

For the variant GCUAACGGUCAUAGGCCAUGGAAACUAGGAGCACCAUUUCGCUGCCAGUGAAGAAAUGAACAAAGCAAAUCUGGGCCAGGCAGGCAUCAAAAGAAAUAGUCUUGCGCUCAACCAGAAAGUCUGUAAUCAUUUUAAGGGUA [U2C A66C], the self-cleavage turned out to be 0.66.

Consider GCUAACGGUCAUAGGCCAUGGAAACUAGGAGCACCAUUUCGCUGCCAGUGAAGAAAUGAACAAAGAAAAUCUGGGCCAGGCAGGCAUCAAAAGAAAUAGUCUUGCGCUCAACCAGAAAGUCUGUGAUCAUUUUAAGGGUA [U2C A125G], for which the self-cleavage worked out at 0.55.

Consider GCUAACGGUCAUAGGCCAUGGAAACUAGGAGCACCAUUUCGCUGCCAGUGAAGAAAUGAAUAAAGAAAAUCUGGGCCAGGCAGGCAUCAAAAGAAAUAGUCUUGCGCUCAACCAGAAAGUCUGUAAUCAUUUUAAGGGUA [U2C C61U], for which the self-cleavage is 1.77.

As to GCUAACGGUCAUAGGCCAUGGAAACUAGGAGCACCAUUUCGCUGCCAGUGAAGAAAUGAACAAAGAAAAUCUGGGCCAGGCAGGCAUCAAAAGAAAUAGUCUUGCGCUCAACCAGAAAGUCUGUAUUCAUUUUAAGGGUA [U2C A126U], the self-cleavage was 0.77.

Regarding GCUAACGGUCAUAGGCCAUGGAAACUAGGAGCACCAUUUCGCUGCCAGUGAAGAAAUGAACAAAGAAAAUCUGGGCCAGGCAGGCAUCAAAAGAAAUAGUCUUGCGCUCAACCAGAAAGUCUGUAAUCGUUUUAAGGGUA [U2C A129G], the self-cleavage was determined as 0.75.

As for GCUAACGGUCAUAGGCCAUGGAAACUAGGAGCACCAUUUCGCUGCCAGUGAAGAAAUGAACAAAGAAAAUCUGGGCCAGGCAGGCAUCAAAAGAAAUAGUCUUGCGCUCAACCAGAAAGUCUGUAAUCUUUUUAAGGGUA [U2C A129U], the self-cleavage worked out at 0.84.

Take GCUAACGGUCAUAGGCCAUGGAAAUUAGGAGCACCAUUUCGCUGCCAGUGAAGAAAUGAACAAAGAAAAUCUGGGCCAGGCAGGCAUCAAAAGAAAUAGUCUUGCGCUCAACCAGAAAGUCUGUAAUCAUUUUAAGGGUA [U2C C25U]: the self-cleavage worked out at 1.85.

On to GCUAACGGUCAUAGGCCAUGGAAACUAGGAGCACCAUUUCGCUGCCAGUGAAGAAAUGAACAAAGAAAAUCUGGGCCAGGCAGGCAUCAAAAGAAAUAGUCUUGCGCUCAACCAGUAAGUCUGUAAUCAUUUUAAGGGUA [U2C A116U], for which the self-cleavage is 0.

Turning to GCUAACGGUCAUAGGCCAUGGAAACUAGGAGCACCAUUUCGCUGCCAGUGAAGAAAUGAACAAAGAAAAUCUGGGCCAGGCAGGCAUCAAAAGAAAUAGUCUUGCGCUCAACCAGAAAGUCUGUAAUAAUUUUAAGGGUA [U2C C128A], the self-cleavage was found to be 0.85.

On to GCUAACGGUCAUAGGCCAUGGAAACUAGGAGCACCAUUUCGCUGCCAGUGAAGAAAUGAACAAAGAAAAUCUGGGACAGGCAGGCAUCAAAAGAAAUAGUCUUGCGCUCAACCAGAAAGUCUGUAAUCAUUUUAAGGGUA [U2C C76A], for which the self-cleavage was found to be 0.1.

In the case of GCUAACGGUCAUAGGCCAUGGAAACUAGGAGCACCAUUUCGCUGCCAGUGAAGAAAUGAACAAAGAAAAUCUGGGCCAGGCAGGCAUCAAAAGAAAUGGUCUUGCGCUCAACCAGAAAGUCUGUAAUCAUUUUAAGGGUA [U2C A98G], the self-cleavage was 0.57.

As for GCUAACGGUCAUAGGCCAUGGAAACUAGGAGCACCAUUUCGCUGCCAGUGAAGAAAUGAACAAAGAAGAUCUGGGCCAGGCAGGCAUCAAAAGAAAUAGUCUUGCGCUCAACCAGAAAGUCUGUAAUCAUUUUAAGGGUA [U2C A68G], the self-cleavage turned out to be 1.13.

For GCUAACGGUCAUAGGCCAUGGAAACUAGGAGCACCAUUUCGCUGCCAGUGAAGAAAUGAACAAAGAAAUUCUGGGCCAGGCAGGCAUCAAAAGAAAUAGUCUUGCGCUCAACCAGAAAGUCUGUAAUCAUUUUAAGGGUA [U2C A69U], the self-cleavage is 1.15.

As to GCUAACGGUCAUAGGUCAUGGAAACUAGGAGCACCAUUUCGCUGCCAGUGAAGAAAUGAACAAAGAAAAUCUGGGCCAGGCAGGCAUCAAAAGAAAUAGUCUUGCGCUCAACCAGAAAGUCUGUAAUCAUUUUAAGGGUA [U2C C16U], the self-cleavage was found to be 0.69.

Take GCUAACGGUCAUAGGCCAUGGAAACUAGGAGCACCAUUUCGCUGCCAGUGAAGAAAUGAACAAAGAAAAUCUGGGCCAGGCAGGCAUCAAAAGAAAUAGUCUUGCGCUCGACCAGAAAGUCUGUAAUCAUUUUAAGGGUA [U2C A110G]: the self-cleavage came out at 0.11.

With GCUAACGGUCAUAGGCCAUGGAAACUAGGAGCACCAUUUCGCUGCCAGUGAAGAAAUGAACAAAGAAAAUCUGGGCCUGGCAGGCAUCAAAAGAAAUAGUCUUGCGCUCAACCAGAAAGUCUGUAAUCAUUUUAAGGGUA [U2C A78U], the self-cleavage was determined as 0.09.

For the variant GCUAACGGUCAUAGGCCAUGGAAACUAGGAGCACCAUUUCGCUGCCAGUGAAGAAAUGAACAAAGAAAAUCUGGGCCCGGCAGGCAUCAAAAGAAAUAGUCUUGCGCUCAACCAGAAAGUCUGUAAUCAUUUUAAGGGUA [U2C A78C], the self-cleavage was 0.4.

GCUAACGGUCAUAGGCCAUGGAAACUAGGAGCACCAUUUCGCUGCCAGUGAAGAAAUGAACAAAGAAAAUCUGGGCCAGGCAGGCAUCAAAAGAAGUAGUCUUGCGCUCAACCAGAAAGUCUGUAAUCAUUUUAAGGGUA [U2C A96G]: the self-cleavage is 1.1.

GCUAACAGUCAUAGGCCAUGGAAACUAGGAGCACCAUUUCGCUGCCAGUGAAGAAAUGAACAAAGAAAAUCUGGGCCAGGCAGGCAUCAAAAGAAAUAGUCUUGCGCUCAACCAGAAAGUCUGUAAUCAUUUUAAGGGUA [U2C G7A]: the self-cleavage worked out at 1.22.

For GCUAACUGUCAUAGGCCAUGGAAACUAGGAGCACCAUUUCGCUGCCAGUGAAGAAAUGAACAAAGAAAAUCUGGGCCAGGCAGGCAUCAAAAGAAAUAGUCUUGCGCUCAACCAGAAAGUCUGUAAUCAUUUUAAGGGUA [U2C G7U], the self-cleavage was 1.2.

GCUAACGGUCAUAGGCCAUGGAAACUAGGAGCACCAUUUCGCUGCCAGUGAAGAAAUGAACAAAGAAAAUCUGGGCCAGGCAGGCAUCAAAAGAGAUAGUCUUGCGCUCAACCAGAAAGUCUGUAAUCAUUUUAAGGGUA [U2C A95G]: the self-cleavage amounted to 1.53.

As to GCUAACGGUCAUAGGCCAUGGAAACUAGGAGCACCAUUUCGCUGCCAGUGAAGAAAUGAACAAAGAAAAUCUGGGCCAGGCAGGCAUCAAAAGAUAUAGUCUUGCGCUCAACCAGAAAGUCUGUAAUCAUUUUAAGGGUA [U2C A95U], the self-cleavage is 0.99.

Turning to GCUAACGGUCAUAGGCCAUGGAAACUAGGAGCACCAUUUCGCUGCUAGUGAAGAAAUGAACAAAGAAAAUCUGGGCCAGGCAGGCAUCAAAAGAAAUAGUCUUGCGCUCAACCAGAAAGUCUGUAAUCAUUUUAAGGGUA [U2C C46U], the self-cleavage was determined as 0.54.

For GCUAACGGUCAUAGGCCAUGGAAACUAGGAGCACCAUUUCGCUGCCAGUGAAGAAAUGAACAAAGAAAAUCUGGGCCAGGCAGGCAUCAAAGGAAAUAGUCUUGCGCUCAACCAGAAAGUCUGUAAUCAUUUUAAGGGUA [U2C A92G], the self-cleavage was determined as 0.98.

Regarding GCUAACGGUCAUAGGCCAUGGAAACUAGGAGCACCAUUUCGCUGCCAGUGAAGAAAUGAACAAAGAAAAUCUGGGCCAGGCAGGCAUCAAAAGAAAUAGUCUUGCGCUUAACCAGAAAGUCUGUAAUCAUUUUAAGGGUA [U2C C109U], the self-cleavage amounted to 0.29.

With GCUAACGGUCAUAGGCCAUGGAAACUAGGAGCACCAUUUCGCUGCCAGUGAAGAAAUGAACAAAGAAAAUCUGGGCCAGGCAGGCAUCAAAAGAAAUAGUCUUGCGCUCAACCAGAAAGUCUGUAAUCAUUUUAAGGGUG [U2C A140G], the self-cleavage stood at 0.72.

GCUAACGGUCAUAGGCCAUGGAAACUAGGAGCACCAUUUCGCUGCCAGUGAAGAAAUGAACAAAGAAAAUCUGGGCCAGGCAGGCUUCAAAAGAAAUAGUCUUGCGCUCAACCAGAAAGUCUGUAAUCAUUUUAAGGGUA [U2C A86U]: the self-cleavage amounted to 2.13.

With GCUAACGGUCAUAGGCCAUGGAAACUAGGAGCACCAUUUCGCUGCCAGUGAAGAAAUGAACAAAGAAAAUCUGGGCCAGGCAGGCGUCAAAAGAAAUAGUCUUGCGCUCAACCAGAAAGUCUGUAAUCAUUUUAAGGGUA [U2C A86G], the self-cleavage was determined as 0.95.

Take GCUAACGGUCAUAGGCCAUGGAAACUAGGAGCACCAUUUCGCUGCCAGUGAAGAAAUGAACAAAGAAAAUCUGGGCCAGGCAGGCAUCAAAAGAAAUAGUCUUGCGCUCAACCAGAAAGUCUGUAAUCAUUUUAUGGGUA [U2C A135U]: the self-cleavage is 0.5.

For GCUAACGGUCAUAGGCCAUGGAAACUAGGAGCACCAUUUCGCUGCCAGUGAAGAAAUGAACAAAGAAAAUCUGGGCCAGGCAGGCAUCAAAAGAAAUAGUCUUGCGCUCAACCAGAGAGUCUGUAAUCAUUUUAAGGGUA [U2C A117G], the self-cleavage was 1.33.

In the case of GCUAACGGUCAUAGGCCAUGGAAACUAGGAGCACCAUUUCGCUGCCAGUGAAGAAAUGAACAAAGAAAAUCUGGGCCAGGCAGGCAUCGAAAGAAAUAGUCUUGCGCUCAACCAGAAAGUCUGUAAUCAUUUUAAGGGUA [U2C A89G], the self-cleavage was 0.63.

For GCUAACGGUCAUAGGCCAUGGAAACUAGGAGCACCAUUUCGCUGCCAGUGAAGAAAUGAACAAAGAAAAUCUGGGCCAGGCAGGCAUCUAAAGAAAUAGUCUUGCGCUCAACCAGAAAGUCUGUAAUCAUUUUAAGGGUA [U2C A89U], the self-cleavage was determined as 1.7.

Regarding GCUAACGGUCAUAGGCCAUGGAAACUAGGAGCACCAUUUCGCUGCCAGUGAAGAAAUGAACAAAGAGAAUCUGGGCCAGGCAGGCAUCAAAAGAAAUAGUCUUGCGCUCAACCAGAAAGUCUGUAAUCAUUUUAAGGGUA [U2C A67G], the self-cleavage is 1.13.

Turning to GCUAACGGUCAUAGGCCAUGGAAACUAGGAGCACCAUUUCGCUGCCAGUGAAGAAAUGAACAAAGAUAAUCUGGGCCAGGCAGGCAUCAAAAGAAAUAGUCUUGCGCUCAACCAGAAAGUCUGUAAUCAUUUUAAGGGUA [U2C A67U], the self-cleavage turned out to be 0.85.
